Columns and labels:
[1] = tested on: human embryonic stem cells; test: RT-PCR of mesoderm-specific marker genes in treated human embryonic stem cells; assay type: cell-based; conditions: PD98059 20˜50 μM, BMP-4 10˜20 ng/ml; 3 days and 5 days; FIG. 2(A)
Description: The human embryonic stem cells cultured in Example 1 were cultured for 3 days in a conditioned medium that contained the MEK1/2 inhibitors, PD98059 and BMP-4 at a concentration of 20˜50 μM and 10˜20 ng/ml, respectively. Then, in order to confirm the differentiation of human embryonic stem cells into mesodermal cells, expression of the mesoderm-specific marker genes was examined by RT-PCR. For analysis of gene expression, total RNA was isolated from cells, and cDNA was synthesized using reverse transcriptase, followed by PCR (polymerase-chain reaction) using primers specific to each gene.
As a control group, sample was cultured only in the conditioned medium for 5 days. As experimental groups, cells were cultured for 3 days and 5 days in culture media that were prepared by adding each of PD98059 and BMP-4 to the unconditioned medium at a concentration of 20˜50 μM and 10˜20 ng/ml, respectively. In addition, cells were simultaneously treated with PD98059 and BMP-4, and examined for 3 days and 5 days.

[2] = tested on: CD34 positive cells (hESC-derived hemangioblasts); test: RT-PCR of vascular smooth muscle cell-specific markers in CD34 positive cells; assay type: cell-based, human; conditions: EGM with PDGF-BB 50 ng/ml, about 5 days; FIG. 5(a)
Description: In order to differentiate CD34 positive cells into vascular smooth muscle cells, CD34 positive cells were cultured for about 5 days in EGM (Endothelial cell Growth Medium, clonetics, USA) containing PDGF-BB at a concentration of 50 ng/ml. Expressions of the vascular smooth muscle cell-specific markers were examined by RT-PCR. For analysis of gene expression, total RNA was isolated from cells, and cDNA was synthesized using reverse transcriptase, followed by PCR (polymerase-chain reaction) using primers specific to each gene.

[3] = tested on: hESC-derived vascular smooth muscle cells; test: Immunofluorescent staining of vascular smooth muscle cell-specific markers; assay type: cell-based, human; conditions: EGM with PDGF-BB; FIG. 5(b)
Description: In order to confirm the differentiation into vascular smooth muscle cell at protein level, expressions of the vascular smooth muscle cell-specific markers were examined by immunofluorescent staining. In order to stain the hESC-derived vascular smooth muscle cells with the vascular smooth muscle cell-specific markers, α-smooth muscle actin (α-SMA) and calponin, the sample was first fixed in 4% paraformaldehyde at room temperature for 20 min, and then washed with a PBST solution (0.1% Tween-20 in PBS) for 5 min three times. To allow permeabilization of antibodies into the nucleus, a permeating solution (0.1% Triton X-100 in PBS) was added to culture plates, and left at room temperature for 15 min. After 15 min, the permeating solution was removed, and 4% NGS (Normal Goat Serum) was added for blocking at room temperature for 1 hr. […] Next day, in order to examine expressions of the markers (α-SMA, calponin) under a fluorescence microscope, secondary antibodies against the marker antibodies (Alexa 488-conjugated Goat anti-mouse IgG and Alexa 594-conjugated Goat anti-Rabbit poly) were added, and left at room temperature for 1 hr. After 1 hr, the culture plates were washed with a PBST solution for 10 min five times, and a fluorescence microscope was used to examine their expressions.

| Molecule | Expressions of the mesoderm-specific markers BRACHYURY, GOOSECOID, TBX-4, TBX-5 and TBX-6 (RT-PCR) [1] | Expression of the vascular smooth muscle cell-specific markers SM22α, SM-MHC, PDGF-B receptor, α-SMA and calponin (RT-PCR) [2] | Expressions of the vascular smooth muscle cell-specific markers α-SMA and calponin at protein level (immunofluorescent staining) [3] |
| --- | --- | --- | --- |
| COc1cccc(-c2cc(=O)c3ccccc3o2)c1N [PD98059, 2-(2-amino-3-methoxyphenyl)-4H-1-Benzopyran-4-one2-(2′-Amino-3′-methoxy)-flavone2-(2-amino-3-methoxyphenyl)-chromone, reference compound] | not observed | – | – |
| BMP-4: bone morphogenetic protein, growth factor used to regulate differentiation of embryonic stem cells (protein, UniProt P12644 293-408, looked up) Bone morphogenetic protein 4: SPKHHSQRARKKNKNCRRHSLYVDFSDVGWNDWIVAPPGYQAFYCHGDCPFPLADHLNSTNHAIVQTLVNSVNSSIPKACCVPTELSAISMLYLDEYDKVVLKNYQEMVVEGCGCR | not observed | – | – |
| PDGF-BB: Platelet-derived growth factor-BB (protein, UniProt P01127 82-190, looked up) Platelet-derived growth …: SLGSLTIAEPAMIAECKTRTEVFEISRRLIDRTNANFLVWPPCVEVQRCSGCCNNRNVQCRPTQVQLRPVQVRKIEIVRKKPIFKKATVTLEDHLACKCETVAAARPVT | – | found to express | observed |
